Assay results taken from patent US9938510B2, “Photobacterium sp. alpha-2-6-sialyltransferase variants” (The Regents of the University of California, priority 2014, dated 2018).
Changes are numbered by the printed parent chain. Numbers in names are those of the source.

B1: Psp26ST(15-501)-His6: recombinant Photobacterium sp. JH-ISH-224 α2-6-sialyltransferase, residues 15-501, C-terminal His6, wild-type; SEQ ID NO: 23 (protein)
chain: CNNSEENTQSIIKNDINKTIIDEEYVNLEPINQSNISFTKHSWVQTCGTQQLLTEQNKESISLSVVAPRLDDDEKYCFDFNGVSNKGEKYITKVTLNVVAPSLEVYVDHASLPTLQQLMDIIKSEEENPTAQRYIAWGRIVPTDEQMKELNITSFALINNHTPADLVQEIVKQAQTKHRLNVKLSSNTAHSFDNLVPILKELNSFNNVTVTNIDLYDDGSAEYVNLYNWRDTLNKTDNLKIGKDYLEDVINGINEDTSNTGTSSVYNWQKLYPANYHFLRKDYLTLEPSLHELRDYIGDSLKQMQWDGFKKFNSKQQELFLSIVNFDKQKLQNEYNSSNLPNFVFTGTTVWAGNHEREYYAKQQINVINNAINESSPHYLGNSYDLFFKGHPGGGIINTLIMQNYPSMVDIPSKISFEVLMMTDMLPDAVAGIASSLYFTIPAEKIKFIVFTSTETITDRETALRSPLVQVMIKLGIVKEENVLFWA
modifications: C-terminal His6; Synthetic Psp26ST(15-501) WILD TYPE
B2: A366G: Photobacterium sp. JH-ISH-224 α2-6-sialyltransferase residues 15-501, A366G point mutation, C-terminal His6; SEQ ID NO: 2 (protein)
chain: B1 chain with A352G
modifications: C-terminal His6; Synthetic Psp26ST(15-501) A366G

What was measured:
[1] = Sialyltransferase activity assay, GalNAcαSer as acceptor (HPLC); format: biochemical; conditions: 1 equivalent CMP-Neu5Ac was used; no NmCSS
Procedure: When LacβMU was used as an acceptor, the assay was performed in duplicate in 10 μL of Tris-HCl buffer (100 mM, pH 8.0) containing CMP-Neu5Ac (1 mM), LacβMU (1 mM), MgCl2 (20 mM), wild-type Psp2,6ST(15-501)-His6 or its mutant (0.3 μM). When an α-GalNAc-terminated acceptor was used, the assay was performed in duplicate in 10 μL of Tris-HCl buffer (100 mM, pH 8.0 for GalNAcαSer/Thr) or NaOAc-HOAc (100 mM, […]), MgCl2 (20 mM), wild-type Psp2,6ST(15-501)-His6 or its mutant (3.0 μM). Reactions were allowed to proceed at 20° C. for 20 min and stopped by adding 10 μL of cold ethanol. The analysis of sialylated product conversion was performed using the HPLC system as described above for sialyltransferase activity assay. The 4-methylumbelliferone (MU)-labeled fluorescent acceptor and the product formed were detected with excitation at 325 nm and emission at 372 nm. The 2-aminobenzoic acid (2AA)-labeled fluorescent acceptors and the products formed were detected with excitation at 315 nm and emission at 400 nm. The 9-fluorenylmethylcarbamate (Fmoc)-labeled fluorescent acceptors and the products formed were detected with excitation at 262 nm and emission at 313 nm.

[2] = One-pot two-enzyme (OP2E) sialylation with NmCSS, GalNAcαSer as acceptor; format: biochemical; conditions: 1 equivalent of Neu5Ac and 1.5 equivalents of CTP
Text: (§1) White bars: GalNAcαSer was used as an acceptor with 1 equivalent of Neu5Ac and 1.5 equivalents of CTP. Grey bars: GalNAcαSer was used as an acceptor with 2.5 equivalents of Neu5Ac and 5.0 equivalents of CTP. Black bars: GalNAcαThr was used as an acceptor with 2.5 equivalents of Neu5Ac and 5.0 equivalents of CTP.
In this system, CTP and Neu5Ac were used by NmCSS for the formation of CMP-Neu5Ac in situ (see also, Yu and Chen, et al. Bioorg. Med. Chem. 2004, 12, 6427-6435). CMP-Neu5Ac was used as the donor substrate for Psp26ST(15-501)-His6 or its mutants. […] For example, using 1 equivalent of Neu5Ac and 1.5 equivalents of CTP in the one-pot two-enzyme (OP2E) reaction (white bars in FIG. 6) improved the GalNAcαSer α2-6-sialylation reaction yields from less than 6% (1 equivalent CMP-Neu5Ac was used) (FIG. 5B) to 32-51% for W365A, W365G, W365S mutants. Similarly, the OP2E reaction improved the GalNAcαSer α2-6-sialylation reaction yields from 40% and 37% to 75% and 67% for A366G mutant and the wild-type enzyme, respectively. Increasing the concentrations of Neu5Ac and CTP to 2.5 and 5.0 equivalents further improved the reaction yields to more than 67% for Psp26ST(15-501)-His6 and its mutants (black bars in FIG. 6). […]

[3] = One-pot two-enzyme (OP2E) sialylation with NmCSS, GalNAcαThr as acceptor; format: biochemical; conditions: 2.5 equivalents of Neu5Ac and 5.0 equivalents of CTP
Text: as §1
In this system, CTP and Neu5Ac were used by NmCSS for the formation of CMP-Neu5Ac in situ (see also, Yu and Chen, et al. Bioorg. Med. Chem. 2004, 12, 6427-6435). CMP-Neu5Ac was used as the donor substrate for Psp26ST(15-501)-His6 or its mutants. […] For example, using 1 equivalent of Neu5Ac and 1.5 equivalents of CTP in the one-pot two-enzyme (OP2E) reaction (white bars in FIG. 6) improved the GalNAcαSer α2-6-sialylation reaction yields from less than 6% (1 equivalent CMP-Neu5Ac was used) (FIG. 5B) to 32-51% for W365A, W365G, W365S mutants. Similarly, the OP2E reaction improved the GalNAcαSer α2-6-sialylation reaction yields from 40% and 37% to 75% and 67% for A366G mutant and the wild-type enzyme, respectively. Increasing the concentrations of Neu5Ac and CTP to 2.5 and 5.0 equivalents further improved the reaction yields to more than 67% for Psp26ST(15-501)-His6 and its mutants ([…]). […] Therefore, in situ generation of CMP-Neu5Ac, the sugar nucleotide donor for sialyltransferases, was proven an efficient method to enhance the yields for sialylation reactions catalyzed not only by the wild-type enzymes but also sialyltransferase mutants.

[4] = Expression and Ni2+-NTA purification of soluble recombinant protein; SDS-PAGE of lysates; parameters: species or system Escherichia coli; conditions: for expression level, purified by Ni2+-NTA column: per liter of Escherichia coli culture, repeated expression in duplicates or triplicates
Procedure: The plasmids containing mutant genes were transformed into Escherichia coli BL21 (DE3). The Escherichia coli cells were cultured in LB-rich media (10 g L^−1 tryptone, 5 g L^−1 yeast extract, and 10 g L^−1 NaCl) supplemented with ampicillin (100 μg mL^−1). Overexpression of the mutants was achieved by adding 0.3 mM of isopropyl-1-thio-β-D-galactopyranoside (IPTG) to the Escherichia coli culture when its OD600 nm reached 0.8. The induced culture was incubated at 20° C. for 20 h with vigorous shaking at 250 rpm in a C25KC incubator shaker (New Brunswick Scientific, Edison, N.J.). His6-tagged mutant proteins were purified from the cell lysate. To obtain cell lysate, the cell pellet harvested by centrifugation at 4000 rpm for 2 h was resuspended in 20 mL (for cells obtained from one liter culture) of lysis buffer (pH 8.0, 100 mM Tris-HCl containing 0.1% Triton X-100). Lysozyme (50 μg mL^−1) and DNaseI (3 μg mL^−1) were added to the resuspended cells followed by shaking at 37° C. for 60 min. The lysate was obtained as the supernatant after centrifugation at 11,000 rpm for 20 min. Purification of His6-tagged proteins from the lysate was achieved using 10 mL column packed with Ni^2+-NTA agarose. The column was pre-equilibrated with 8 column volumes of binding buffer (5 mM imidazole, 0.5 M NaCl, 50 mM Tris-HCl pH 7.5). After loading the sample, the column was washed with 8 column volumes of the binding and 8 column volumes of washing buffer (20 mM imidazole, 0.5 M NaCl, 50 mM Tris-HCl pH 7.5). Protein was eluted using 8 column volumes of the elute buffer (200 mM imidazole, 0.5 M NaCl, 50 mM Tris-HCl pH 7.5). The fractions containing the purified enzyme were collected and stored at 4° C. Protein concentrations were quantified by bicinchoninic acid (BCA) protein assay kit according to manufacturer's instruction using bovine serum albumin (BSA) as the protein standard. The wild-type enzyme and A366G mutant were expressed, purified, and quantified in duplicates or triplets for at least three times. […]

Molecule	GalNAcαSer α2-6-sialylation reaction yield, sialyltransferase alone (FIG. 5B) [1] [%]	GalNAcαSer α2-6-sialylation reaction yield, OP2E [2] [%]	yield of Neu5Acα2-6GalNAcαThr from GalNAcαThr, OP2E [3] [%]	expression level, purified by Ni2+-NTA column [4]	expression level ([4]; general description) [mg/L]
B1	37	67	88	18-40 mg per liter	–
B2	40	75	93	72-110 mg per liter	72 to 110
